Measurements from paper PMC2854098 (Molecular Biology of the Cell, 2010).
One block for each binder: values may come before it.

Target: recombinant, active murine ERK2 protein (murine, UniProt P63085 1-358)
Assay: pull-down

binding result: binds
B1: recombinant h1CaP-CBD (natural protein, ferret, UniProt Q9GK38 1-297, looked up)
chain: MSSAHFNRGPAYGLSAEVKNKLAQKYDHQREQELREWIEGVTGRRIGSNFMDGLKDGIILCEFINKLQPGSVKKVNESTQNWHQLENIGNFIKAITKYGVKPHDIFEANDLFENTNHTQVQSTLLALASMAKTKGNKVNVGVKYAEKQERKFEPEKLREGRNIIGLQMGTNKFASQQGMTAYGTRRHLYDPKLGTDQPLDQATISLQMGTNKGASQAGMTAPGTKRQIFEPGLGMEHCDTLNVSLQMGSNKGASQRGMTVYGLPRQVYDPKYCLTPEYPELGEPTHNHHAHNYYNSA

binding result: binds
B2: recombinant h3/acidic CaP-CBD (natural protein, rat, UniProt P37397 1-330, looked up)
chain: MTHFNKGPSYGLSAEVKNKIASKYDQQAEEDLRNWIEEVTGMGIGTNFQLGLKDGIILCELINKLQPGSVKKVNESSLNWPQLENIGNFIKAIQAYGMKPHDIFEANDLFENGNMTQVQTTLVALAGLAKTKGFHTTIDIGVKYAEKQTRRFDEGKLKAGQSVIGLQMGTNKCASQAGMTAYGTRRHLYDPKMQTDKPFDQTTISLQMGTNKGASQAGMSAPGTRRDIYDQKLTLQPVDNSTISLQMGTNKVASQKGMSVYGLGRQVYDPKYCAAPTEPVIHNGSQGTGTNGSEISDSDYQAEYPDEYHGEYPDEYPREYQYGDDQGIDY
